The text below walks through data of US20240400717A1, “Antibody Binding to CHI3L1 for Treating Cancer” (National Cheng Kung University, priority 2021, published 2024).

The target in the assay is T1, CHI3L1 binding to IL-13Rα2 on A549 cell line (Homo sapiens, UniProt P36222).
T1 construct: host or cells: A549 cells carry the receptor
The assay is described as follows: Functional screen: block of CHI3L1 binding to IL-13Rα2 on A549 cell line. The following applies: A549 cells, compared with CHI3L1 only. In kind it is cell-based. The source says:
CHI3L1 is known to associate with different receptors, such as IL-13Rα2 (He et al. 2013), CRTH2 (Zhou et al. 2015), TMEM219 (Lee et al. 2016), and galectin-3 (Zhou et al. 2015). […] Therefore, purified antibody leads were functionally screened for their ability to block CHI3L1 binding to IL-13Rα2 on A549 cell line (FIG. 3A). […] The sequences and defied CDR regions among those monoclonal antibodies are listed and summarized in the sequences list (SEQ ID NOs: 1 to 88) and Table 2, respectively. Anti-CHI3L1 clone R4-2 heavy chain (SEQ ID NO: 1), anti-CHI3L1 clone R4-2 light chain (SEQ ID NO: 2), anti-CHI3L1 clone R4-4 heavy chain (SEQ ID NO: 9), anti-CHI3L1 clone R4-4 light chain (SEQ ID NO: 10), anti-CHI3L1 clone R4-39 heavy chain (SEQ ID NO: 17), anti-CHI3L1 clone R4-39 light chain (SEQ ID NO: 18), anti-CHI3L1 clone R4-53 heavy chain (SEQ ID NO: 25), anti-CHI3L1 clone R4-53 light chain (SEQ ID NO: 26), anti-CHI3L1 clone R4-54 heavy chain (SEQ ID NO: 33), anti-CHI3L1 clone R4-54 light chain (SEQ ID NO: 34), anti-CHI3L1 clone R4-62 heavy chain (SEQ ID NO: 41), anti-CHI3L1 clone R4-62 light chain (SEQ ID NO: 42), anti-CHI3L1 clone R4-63 heavy chain (SEQ ID NO: 49), anti-CHI3L1 clone R4-63 light chain (SEQ ID NO: 50), anti-CHI3L1 clone R4-93 heavy chain (SEQ ID NO: 57), anti-CHI3L1 clone R4-93 light chain (SEQ ID NO: 58), anti-CHI3L1 clone 293R3-2 heavy chain (SEQ ID NO: 65), anti-CHI3L1 clone 293R3-2 light chain (SEQ ID NO: 66), anti-CHI3L1 clone 293R3-4 heavy chain (SEQ ID NO: 73), anti-CHI3L1 clone 293R3-4 light chain (SEQ ID NO: 74), anti-CHI3L1 clone 293R3-5 heavy chain (SEQ ID NO: 81), and anti-CHI3L1 clone 293R3-5 light chain (SEQ ID NO: 82) are shown in sequence listing.

T1 sequence (P36222 22-383): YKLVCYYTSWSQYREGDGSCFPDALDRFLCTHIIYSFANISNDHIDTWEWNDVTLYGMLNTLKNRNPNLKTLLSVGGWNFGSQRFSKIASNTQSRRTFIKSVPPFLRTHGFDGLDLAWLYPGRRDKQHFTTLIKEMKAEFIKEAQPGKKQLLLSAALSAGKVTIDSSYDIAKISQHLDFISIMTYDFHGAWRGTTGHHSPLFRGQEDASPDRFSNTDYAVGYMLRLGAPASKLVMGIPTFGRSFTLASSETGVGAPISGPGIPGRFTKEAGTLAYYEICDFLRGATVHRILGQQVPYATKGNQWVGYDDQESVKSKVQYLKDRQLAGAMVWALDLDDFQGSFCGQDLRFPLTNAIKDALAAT

B1: #R4-53: fully human anti-CHI3L1 mAb, Table 1 No. 33; heavy chain SEQ ID NO: 25, light chain SEQ ID NO: 26 (antibody, listed as Homo sapiens)
VH: QVQLVQSGAEVKKPGASVKVSCKASGYTFTSYYMHWVRQAPGQGLEWMGIINPSGGSTSYAQKFQGRVTMTRDTSTSTVYMELSSLRSEDTAVYYCASDIGDYGDYWGQGTTVTVSS
light: SYVLTQPPSVSVALGQTARITCGGNNIESKIVSWYQQKPGQAPVLVIFYDTDRPSGISERFSGSNSGNTATLTISRVEAGDEADYYCQVWDSNSDHVIFGGGTKLTVLGQPKAAPSVTLFPPSSEELQANKATLVCLISDFYPGAVTVAWKADSSPVKAGVETTTPSKQSNNKYAASSYLSLTPEQWKSHRSYSCQVTHEGSTVEKTVAPTECS
For B1, the CHI3L1 neutralizing activity entry is “best neutralizing activity”.

B2: #R4-62: fully human anti-CHI3L1 mAb, Table 1 No. 37; heavy chain SEQ ID NO: 41, light chain SEQ ID NO: 42 (antibody, listed as Homo sapiens)
VH: EVQLVESGGGLVQPGGSLRLSCAASGLTFPNFAMTWVRQTPGKGLQWVSTISGRGDEPFYADSVKGRFTISRDNSKNMVYLHMNSLRAEDTAIYYCAKGGHFSSWDYWGQGTLVTVSS
light: NFMLTQPHSVSESPGKTVTISCTRSSGSIASNYVQWYQQRPDSAPTTVIYEDIERPSGVPDRFSGAIDSSANSASLTISGLQTEDEADYYCQSYDSSSYVFGTGTKVTVLGQPKANPTVTLFPPSSEELQANKATLVCLISDFYPGAVTVAWKADGSPVKAGVETTKPSKQSNNKYAASSYLSLTPEQWKSHRSYSCQVTHEGSTVEKTVAPTECS
B2: the CHI3L1 neutralizing activity result was “best neutralizing activity”.

B3: #R4-63: fully human anti-CHI3L1 mAb, Table 1 No. 38; heavy chain SEQ ID NO: 49, light chain SEQ ID NO: 50 (antibody, listed as Homo sapiens)
VH: EVQLVQSGAEVKKPGATVKISCKVSGYTFTDYYMHWVQQAPGKGLEWMGLVDPEDGETIYAEKFQGRVTITADTSTDTAYMELSSLRSEDTAVYYCATIGRPPDYWGQGTTVTVSS
light: QSVLTQPPSVSAAPGQKVTISCSGSSSNIGNNYVSWYQQLPGTAPKLLIYDNNKRPSGIPDRFSGSKSGTSATLGITGLQTGDEADYYCGTWDSSLSVWVFGGGTKLTVLGQPKAAPSVTLFPPSSEELQANKATLVCLISDFYPGAVTVAWKADSSPVKAGVETTTPSKQSNNKYAASSYLSLTPEQWKSHKSYSCQVTHEGSTVEKTVAPTECS
For the molecule B3, the CHI3L1 neutralizing activity result is “best neutralizing activity”.

B4: #293R3-5: fully human anti-CHI3L1 mAb, Table 1 No. 5; heavy chain SEQ ID NO: 81, light chain SEQ ID NO: 82 (antibody, listed as Homo sapiens)
VH: EVQLVQSGAGVKKPGATVKISCKVSGYTFTDYYMHWVQQAPGKGLEWMGLVDPEDGETIYAEKFQGRVTITADTSTDTAYMELSSLRSEDTAVYYCATASPREEMPYYFDYWGQGTLVTVSS
light: SYELTQPPSVSVSPGQTASITCSGDILADQYASWYQQKPGQSPVLVIYHDTKRPSGVPERFSGSTSGNTATLTISGTQAMDEAAYYCQAWDINTAWVFGGGTQLTVLGQPKAAPSVTLFPPSSEELQANKATLVCLISDFYPGAVTVAWKADSSPVKAGVETTTPSKQSNNKYAASSYLSLTPEQWKSHRSYSCQVTHEGSTVEKTVAPTECS
Consider B4, for which the CHI3L1 neutralizing activity result is listed as “best neutralizing activity”.

B5: #R4-2: fully human anti-CHI3L1 mAb, Table 1 No. 7; heavy chain SEQ ID NO: 1, light chain SEQ ID NO: 2 (antibody, listed as Homo sapiens)
heavy: QVQLVQSGAEVKKPGSSVKVSCKASGGTFSSYAISWVRQAPGQGLEWMGGIIPIFGTANYAQKFQGRVTITADESTSTAYMELSSLRSEDTAVYYCARGDIEYYDILTGYYYYFDYWGQGTLVTVSS
light: SYVLTQPPSVSVAPGKAARVTCGGNDIGSKSVQWYQQKPGQAPVLVISYDNDRPSGIPERFSGSNSGNTATLTISRVEAGDEADYYCQVWDSTSDHYVFGTGTKVTVQGQPKANPTVTLFPPSSEELQANKATLVCLISDFYPGAVTVAWKADSSPVKAGVETTTPSKQSNNKYAASSYLSLTPEQWKSHRSYSCQVTHEGSTVEKTVAPTECS
Consider B5, for which the CHI3L1 neutralizing activity entry was “best neutralizing activity”.
